Results reported in US9529005B2, “Modulating bacterial MAM polypeptides in pathogenic disease” (priority 2011, dated 2016).
Read-outs that look alike come from different tables or passages of the source.

B1: MAM7: recombinant MBP-tagged V. parahaemolyticus multivalent adhesion molecule with seven mce domains in tandem (SEQ ID NO:1) (protein, listed as Vibrio parahaemolyticus)
chain: MSDQNNSQTSYVPDVKRSKGISPLWLLPILTMVLAGWLVVKSIHDAGQRVQIYFSDAAGLVAGRTTIRYQGLEVGMVRDINLSEDLGSIYVDADIYPEATKLLNDKTRFWLVKPTASLTGVSGLDALVSGNYISIQPGDGQEFETTFHALDSAPTDLRVSQGLNIKLKSRDLGGVSIGSQIVYKKIPIGAVYSYQLDEDAKSITIQANIQEQYRHIINDRSRFWNVSGIGASIGFEGVDVRLESMSALLGGAIAVDSPDDGEPVEENTEFRLYKDLKTAGRGIAIKIALPDDNKVSSEGAPIMYRGIEIGQVTDLSLSEGREVILASAAIQPAFSDMLTTGTRFVLEEAKVSLSGVENIANLVRGNFLTIVPGDGERSRRFTAIRKNVFNQQQEKSIAIRLISDNSFGLDSGANVLYKGIVVGSIINVGLVDEKKQTKHEVFMDVLIDHEYKHLIKSNNRFYVTGSASAELTESGLSVTVPPAKQLLTGSISFVSEGSESIQKEYQLFQNESLAELAQYNKTGSKTLMLFASELPPISKGSPLLYRNLPVGNVSDFHLVDGGVLIKATIENRFAYLVTPQTVFWNRSGIEIDASLSGVSVKAHPLKSLIEGGIAFDSVPGVENKVGERWKLYADQQKARKFGRVISLETDGTQEVLKGMPIEYQGVKVGEVTLVVPNFRRNLVEVTARILPEYVENIAVEGTHFWLTEPEIGLGGVKNLGALVSKSISVEPGNGKAKFDFQLEKGFDRVEGVMFTLQSEQRGSVQVGTPVLYRQMEVGQVTDVRLGEFADRVVSTIKIKPEYAYLVRQNSVFWNVSGVDVSIGITGANIKAGTIDSLVRGGIAFSTPEQSQIPPAAKRGHSFYLYPRADESWVQWRTPIPKP
modifications: MBP tag
B2: mce 4: GST-tagged individual mce domain 4 of V. parahaemolyticus MAM7 (SEQ ID NO: 8) (protein, listed as Vibrio parahaemolyticus)
chain: SIAIRLISDNSFGLDSGANVLYKGIVVGSIINVGLVDEKKQTKHEVFMDVLIDHEYKHLIKSNNRFYVTGSASAELTESGLSVTVP
modifications: GST tag
B3: mce 6: GST-tagged individual mce domain 6 of V. parahaemolyticus MAM7 (SEQ ID NO: 10) (protein, listed as Vibrio parahaemolyticus)
chain: FGRVISLETDGTQEVLKGMPIEYQGVKVGEVTLVVPNFRRNLVEVTARILPEYVENIAVEGTHFWLTEPEIGLGGVKNLGALVSKSISVEPG
modifications: GST tag
B4: mce 5: GST-tagged individual mce domain 5 of V. parahaemolyticus MAM7 (SEQ ID NO: 9) (protein, listed as Vibrio parahaemolyticus)
chain: GSKTLMLFASELPPISKGSPLLYRNLPVGNVSDFHLVDGGVLIKATIENRFAYLVTPQTVFWNRSGIEIDASLSGVSVKAHPLKSLIEG
modifications: GST tag
B5: mce 7: GST-tagged individual mce domain 7 of V. parahaemolyticus MAM7 (SEQ ID NO: 11) (protein, listed as Vibrio parahaemolyticus)
chain: EGVMFTLQSEQRGSVQVGTPVLYRQMEVGQVTDVRLGEFADRVVSTIKIKPEYAYLVRQNSVFWNVSGVDVSIGITGANIKAGTIDSLVRG
modifications: GST tag

Assays:
HeLa cells [1] = assay type: cell-based; details: 500 μM heparin from intestinal mucosa
trypsinized cells = assay: Fluorescence attachment assay of labeled MAM7 on trypsinized cells; assay type: binding; details: cells treated with trypsin
Method: HeLa cells were cultured in sterilized Corning costar 96 well plates (15 000 cells/well) for 16 hours prior to experiments. ALEXAFLUOR®-labeled (fluorescent dye) proteins were diluted into PBS to give final concentrations of 0.1-100 μM and incubated with cells washed with PBS for 1 hour at 37° C. Initial fluorescence and fluorescence output were measured on a plate reader (λexcitation 485 nm, λemission 520 nm) prior to and following three washes with PBS, respectively. Data was expressed as % bound fluorescence and corrected for values determined for MBP alone. Levels of bound protein were blotted as a function of protein concentration and data were fit to a single-site binding model using Sigma Plot. For fluorescence attachment assays on trypsinized cells, cells were detached from the culture dish by trypsinization, which was stopped by adding DMEM after 5 minutes. Cells were adjusted to 600,000/ml in PBS and incubated with 100 μM labeled MBP-MAM7 or MBP in PBS for 30 minutes at 37° C. Fluorescence of the cell suspension was measured before and after extensive washing with PBS as described above.
Attachment assays with live bacteria or purified labeled protein were carried out as described (Krachler et al., 2011). […]

[2] = Liposome association assay; assay type: binding; details: for decrease of binding to PA-containing liposomes (apparent affinity): individual GST-mce domains, 1-80 mol % PA, densitometry, relative to high binding mce domains
Method: PBS-buffered liposomes were prepared from 1,2-Dioleoyl-sn-glycero-3-phosphocholine (PC) or mixtures of PC and 1,2-dioleoyl-sn-glycero-3-phosphate (PA) (both Avanti Polar Lipids Inc.) as described previously (Selyunin et al., 2011), but using PBS as buffer. 300 μg liposomes were incubated with 100 μg MBP-MAM protein in PBS for one hour at 22° C. Mixtures were centrifuged at 100 000×g, 4° C. for one hour and both pellet and supernatant fractions were separated by SDS-PAGE and proteins were detected by Coomassie staining.
Binding of GST and GST-mce constructs to liposomes were carried out as described in the literature (Krachler et al., 2011). 300 μg liposomes containing PC alone or 1-80 mol % PA were incubated with 100 μg GST and GST-mce proteins in PBS for one hour at 22° C. Mixtures were centrifuged at 100,000×g, 4° C. for one hour and both pellet and supernatant fractions were separated by SDS-PAGE and proteins detected by Coomassie staining Band intensities were determined using the gel analysis software UN-SCAN-IT (Silk Scientific Inc.) and intensities of pellet samples (% bound) were expressed as fraction of total intensities (supernatant and pellet samples combined).

V. parahaemolyticus POR1 = assay: BL21 expressing MAM constructs blocking POR1 attachment and POR1-mediated cytotoxicity; details: construct expressed on E. coli BL21, identical multiplicity of infection
HeLa cells [3] = assay: Fluorescence attachment assay: saturation binding of labeled MBP-MAM proteins to HeLa cells
Lipid overlay assay = assay type: binding; details: MBP-MAM proteins
Method: Pre-spotted PIPstrips™ (Echelon Biosciences Inc.) were incubated in T-TBS containing 5% dry milk powder for one hour at 22° C. MBP-MAM proteins were diluted into blocking buffer to give a final concentration of 10 μM and incubated with the PIP strip for one hour at 22° C. Strips were washed with T-TBS three times for 10 minutes each and incubated with His antibody (QIAGEN) diluted 1:1000 into blocking buffer at 22° C. for one hour. Strips were washed three times with T-TBS and incubated with anti-mouse HRP-conjugated secondary antibody (GE Healthcare) diluted 1:5000 into blocking buffer for 1 hour at 22° C. After three more washes, bound proteins were detected using the ECL plus detection system (GE Healthcare).

[4] = Pull-down of liposomes (50 mol % PA, 50 mol % PC) on immobilized GST-mce domains; assay type: binding; details: 50 mol % PA and 50 mol % PC, molybdophosphoric acid assay
Method: Liposomes in load, flowthrough and eluate fractions were quantified using the method of Worth an Wright (1977). Briefly, samples were extracted with a mixture of chloroform and methanol, centrifuged and molybdophosphoric acid (Sigma) was added to the organic phase. Samples were centrifuged and the aqueous phase removed. Metol and sodium bisulfate were added to reduce the organic phase and the aqueous phase was removed again following centrifugation. The amount of phospholipid was determined by measuring absorbance at 680 nm and expressed as fraction of the amount detected in loaded fractions.
Although the inventors had previously shown that MAM1 is sufficient to bind to phosphatidic acid, it was unclear how the other mce domains contributed to phosphatidic acid binding in the absence of fibronectin. The inventors tested all seven individual mce domains (mce1-mce7) for phosphatidic acid binding using liposome association assays. Proteins were incubated with liposomes containing a mixture of PC and increasing amounts (1-80 mol %) of PA, followed by separation of liposome-bound and un-bound fractions by ultracentrifugation. All fractions were analyzed by SDS-PAGE (data not shown) followed by densitometry (FIG. 18A). […] When the inventors analyzed the mce domains of MAM7 for overall charge, they found only minor differences between individual domains. When they looked at charge distribution, however, the inventors observed that several basic residues that are otherwise well conserved between individual domains are mutated in mce 6. These include two residues which are lysines in mce 2, the strongest binding mce domain, but a serine and glutamine in mce 6, respectively, and a well conserved arginine which is replaced by a histidine in mce 6 (FIG. 18D). […]. (FIG. 18B and data not shown). […] GST-mce proteins were immobilized and incubated with liposomes. Bound liposomes were quantified using a molybdophosphoric acid assay. […]

Molecule | decrease of binding to PA-containing liposomes (apparent affinity) [2] | binding of liposomes to immobilized GST-mce proteins [4] | further results
heparin | – | – | BL21-MAM7 remaining attached (HeLa cells [1]): ~40%
B1 | – | – | reduction of the number of MAM7 molecules on cells (trypsinized cells): over 100 fold; PA content of liposomes at which binding was seen ([2]; MBP-MAM proteins, PC/PA liposomes): 1 mol %; effect on attachment of POR1 and pathogen-mediated cytotoxicity (V. parahaemolyticus POR1): significantly decreased; Kd (HeLa cells [3]; intact host cells, read-out: apparent KD for intact cells): 200 nM; Kd (HeLa cells [3]; saturation binding, ALEXAFLUOR-labeled MBP-MAM proteins, cultivated HeLa cells, read-out: Equilibrium dissociation constants (KD values)): 200 ± 100 nM; binding to PA in lipid overlay assay (Lipid overlay assay): bound to PA
B2 | bound equally well | strong binding | –
B3 | more than 100 fold | weaker binding | –
B4 | ~6 fold | weaker binding | –
B5 | ~20 fold | strong binding | –
